Laboratory results reported in patent publication US6767991.

Key:
Experiment in all cases: cell-based or functional assay
[1] = molecular target: recombinant HCV NS3 protease type 1b (amino acid 1027 to 1206) (hepatitis C virus genotype 1b)
[2] = molecular target: porcine pancreatic elastase (porcine) (UniProt P00772)
[3] = molecular target: recombinant NS3 protease with the NS4A peptide cofactor … (molar ratio enzyme:cofactor 1:100) (hepatitis C virus genotype 1b)
[4] = molecular target: human leukocyte elastase (human) (UniProt P08246)
[5] = molecular target: human liver cathepsin B (human) (UniProt P07858)
[6] = molecular target: bovine pancreatic α-chymotrypsin (bovine) (UniProt P00766)

human leukocyte elastase (human), sequence (P08246 30-247 limits assumed): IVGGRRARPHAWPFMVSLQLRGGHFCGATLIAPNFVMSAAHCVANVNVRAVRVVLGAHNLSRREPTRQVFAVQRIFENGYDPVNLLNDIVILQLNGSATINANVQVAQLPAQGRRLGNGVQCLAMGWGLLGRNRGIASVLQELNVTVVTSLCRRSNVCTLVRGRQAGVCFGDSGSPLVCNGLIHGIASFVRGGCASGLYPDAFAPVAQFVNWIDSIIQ
porcine pancreatic elastase (porcine), sequence (P00772 27-266): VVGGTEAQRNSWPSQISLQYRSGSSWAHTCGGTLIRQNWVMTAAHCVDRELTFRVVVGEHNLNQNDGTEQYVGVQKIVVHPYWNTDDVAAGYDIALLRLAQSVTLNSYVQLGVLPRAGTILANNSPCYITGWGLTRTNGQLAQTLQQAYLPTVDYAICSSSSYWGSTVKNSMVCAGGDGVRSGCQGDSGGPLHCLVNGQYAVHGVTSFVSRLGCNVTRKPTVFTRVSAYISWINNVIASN

Row | Substance | IC50 [3] [µM] | further results
1 | Compound 110 (Table 1): Ac-Asp-Asp-Chg-Val-Pro-Cys (peptide) | – | IC50 [1]: 24 µM
2 | Compound 114 (Table 1): Ac-Asp-Asp-Ile-Chg-Pro-Cys (peptide) | – | IC50 [1]: 50 µM
3 | Compound 115 (Table 1): Ac-Asp-Asp-Ile-Val-Abu-Cys (peptide) | – | IC50 [1]: 58 µM
4 | Compound 123 (Table 1): Ac-Asp-Asp-Ile-Val-Pro-Nva (peptide) | 220 | PPE [2]: > 300 µM; HLE [4]: > 300 µM
5 | Compound 127 (Table 1): Ac-Asp-Asp-Ile-Val-Pip-Nva (peptide) | – | IC50 [1]: 605 µM
6 | Compound 129 (Table 1): Ac-Asp-Tbg-Ile-Val-Pro-Nva (peptide) | – | IC50 [1]: 270 µM
7 | Compound 203 (Table 2): Ac-Asp-D-Glu-Ile-Val-Pro(O-Bn)-Nva (peptide) | 0.6 | PPE [2]: > 300 µM; Other [5]: > 300 µM; HLE [4]: > 300 µM
8 | Compound 204 (Table 2): Ac-Asp-Asp-Ile-Val-Pro(o-tolyl-methoxy)-Nva (peptide) | – | IC50 [1]: 9.4 µM
9 | Compound 205 (Table 2): Ac-Asp-Asp-Ile-Val-Pro(m-tolyl-methoxy)-Nva (peptide) | – | IC50 [1]: 6.7 µM
10 | Compound 206 (Table 2): Ac-Asp-Asp-Ile-Val-Pro(p-tolyl-methoxy)-Nva (peptide) | – | IC50 [1]: 6.4 µM
11 | Compound 210 (Table 2): Ac-Asp-D-Glu-Chg-Val-Pro(O-Bn)-Cys (peptide) | 0.033 | Other [6]: > 300 µM; PPE [2]: > 300 µM; HLE [4]: > 300 µM
12 | Compound 212 (Table 2): Ac-Asp-D-Glu-Ile-Val-Pro(O-Bn)-Acca (peptide) | 0.21 | PPE [2]: > 300 µM; HLE [4]: > 300 µM
13 | Compound 214 (Table 2): Ac-Asp-D-Glu-Chg-Val-Pro(2-NpCH2O)-Nva (peptide) | 0.028 | Other [6]: > 300 µM; PPE [2]: > 300 µM; Other [5]: > 300 µM; HLE [4]: > 300 µM
14 | Compound 227 (Table 2): Ac-Chg-Val-Pro(1-NpCH2O)-Acca (peptide) | – | HLE [4]: > 600 µM
15 | Compound 231 (Table 2): Ac-Chg-Chg-Pro(1-NpCH2O)-Acca (peptide) | 2.6 | –
16 | Compound 232 (Table 2): AcOCH2-C(O)-Chg-Chg-Pro(1-NpCH2O)-Acca (peptide) | 1.4 | –
17 | Compound 234 (Table 2): Ac-Chg-Chg-Pro(O-Bn)-Acca (peptide) | 41 | –
18 | Compound 235 (Table 2): Boc-Chg-Chg-Pro(1-NpCH2O)-Acca (peptide) | 12 | –
19 | Compound 238 (Table 2): Ac-Chg-Val-Pro((4Br-Ph)O)-Acca (peptide) | 27 | HLE [4]: 195 µM
20 | Compound 239 (Table 2): Ac-Chg-Val-Pro((2Br-Ph)O)-Acca (peptide) | 27 | –
21 | Compound 240 (Table 2): Ac-Chg-Val-Pro((3Br-Ph)O)-Acca (peptide) | 42 | –
22 | Compound 242 (Table 2): Ac-Chg-Val-Pro((4Br-Ph)S)-Acca (peptide) | 36 | –
23 | Compound 249 (Table 2): Ac-Chg-Val-Pro((4I-Ph)O)-Acca (peptide) | 9.7 | –
24 | Compound 252 (Table 2): Ac-Chg-Val-Pro(1-NpCH2O)-Nva (peptide) | 20 | –
25 | Compound 268 (Table 2): Ac-Chg-Val-Pro((3Br-Ph)CH2O)-Acca (peptide) | 24 | –

Row | Substance | IC50 [3] [µM] | further results
26 | Compound 272 (Table 2): Ac-Chg-Val-Pro((3,5-Br2-Ph)CH2O)-Acca (peptide) | 27 | –
27 | Compound 501 (Table 5): Ac-Chg-Val-Pro(OBn)-P1(R14 Et; 1R, 2R) (peptide) | 17.1 | –
28 | Compound 502 (Table 5): Ac-Chg-Val-Pro(OBn)-P1(R14 Et; 1R, 2?) (peptide) | 12.6 | –
29 | Compound 503 (Table 5): Ac-Chg-Chg-Pro(1-NpCH2O)-P1(R14 Et; 1R, 2?) (peptide) | 1.35 | HLE [4]: 250 µM
30 | Compound 504 (Table 5): Ac-Chg-Chg-Pro(1-NpCH2O)-P1(R14 Et; 1R, 2?) (peptide) | 9.53 | –
31 | Compound 505 (Table 5): Ac-Chg-Chg-Pro(1-NpCH2O)-P1(R14 Et; 1R, 2R) (peptide) | 0.55 | –
32 | Compound 506 (Table 5): Ac-Chg-Chg-Pro(1-NpCH2O)-P1(R14 Et; 1S, 2S) (peptide) | – | HLE [4]: > 400 µM
33 | Compound 507 (Table 5): Ac-Chg-Val-Pro(1-NpCH2O)-P1(R14 Me; 1R, 2?) (peptide) | 5.1 | –
34 | Compound 508 (Table 5): Ac-Chg-Val-Pro(1-NpCH2O)-P1(R14 CHMe2; 1R, 2?) (peptide) | 4.15 | –
35 | Compound 509 (Table 5): Ac-Asp-D-Glu-Chg-Chg-Pro(1-NpCH2O)-P1(R14 Et; 1R, 2R) (peptide) | 0.015 | HLE [4]: > 300 µM
36 | Compound 510 (Table 5): Ac-Chg-Val-Pro(1-NpCH2O)-P1(R14 CH2OCH2Ph; 1R, 2?) (peptide) | 15.5 | –
37 | Compound 511 (Table 5): Ac-Chg-Val-Pro(1-NpCH2O)-P1(R14 CH2OCH2Ph; 1R, 2?) (peptide) | 32.5 | –
38 | Compound 512 (Table 5): Ac-Chg-Val-Pro(1-NpCH2O)-P1(R14 (CH2)2Ph; 1R, 2?) (peptide) | 19.5 | –
39 | Compound 513 (Table 5): Ac-Chg-Val-Pro(1-NpCH2O)-P1(R14 Et; 1R, 2R) (peptide) | – | HLE [4]: > 300 µM
40 | Compound 514 (Table 5): Ac-Chg-Val-Pro(1-NpCH2O)-P1(R14 Et; 1S, 2S) (peptide) | 27.5 | –
41 | Compound 515 (Table 5): Ac-Chg-Val-Pro(1-NpCH2O)-P1(R14 Bz; 1R, 2?) (peptide) | 9.2 | –
42 | Compound 516 (Table 5): Ac-Chg-Val-Pro(1-NpCH2O)-P1(R14 Bz; 1R, 2?) (peptide) | 46.5 | –
43 | Compound 518 (Table 5): Ac-Asp-D-Glu-Chg-Val-Pro(1-NpCH2O)-P1(R14 Et; 1R, 2R) (peptide) | 0.011 | HLE [4]: > 300 µM
44 | Compound 519 (Table 5): Ac-Chg-Val-Pro(1-NpCH2O)-P1(R14 Pr; 1R, 2?) (peptide) | 3.45 | –
45 | Compound 520 (Table 5): Ac-Chg-Val-Pro(1-NpCH2O)-P1(R14 Pr; 1R, 2?) (peptide) | 22.5 | –
46 | Compound 521 (Table 5): Ac-Asp-D-Val-Chg-Val-Pro(1-NpCH2O)-P1(R14 Et; 1R, 2R) (peptide) | 0.024 | HLE [4]: > 300 µM
47 | Compound 601 (Table 6): P4 Chg, P3 Val, R13 OBn, R14 CH═CH2 (peptide) | 3.61 | –
48 | Compound 602 (Table 6): P4 Chg, P3 Chg, R13 1-NpCH2O, R14 CH═CH2 (peptide) | 0.13 | –
49 | Compound 603 (Table 6): P4 Chg, P3 Val, R13 1-NpCH2O, R14 CH═CH2 (peptide) | 0.36 | –
50 | Compound 604 (Table 6): P4 Chg, P3 Val, R13 OBn, R14 CH═CHBr* (peptide) | 2.55 | –
